Experimental data: the nanobody polyreactivity screen of Harvey et al. (2022)

Test: yeast display, Sf9 membrane polyspecificity reagent, FACS + sequencing; frameworks hold sequencing errors
In short: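 Nanobodies came from a synthetic yeast display library in Saccharomyces cerevisiae BJ5465, induced with galactose for 36–48 hours and stained for 1 hour at 4 °C with 10% biotinylated, detergent-solubilized Sf9 membrane reagent. Cells were enriched on streptavidin microbeads and then FACS-sorted, with low and high (top ~1%) gates set on anti-HA fluorescence for expression and streptavidin fluorescence for reagent binding. Each polyreactivity label reflects the gate a clone came from. Genes were amplified by colony PCR, sequenced by MiSeq 2 × 250 and filtered by CDR length.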

Sequence	polyreactivity (PSR sort gate)
QVQLVESGGGLVQAGGSLRLSCAASGRTFHNYAMGWYRQAPGKEREFVAVITGSGGRTYYADSVKGRFTISRDNAKNTVYLQMNSLKPEDTAVYYCNRVSRYYLYDYWGQGTQVTVSS	high polyreactivity
QVQLVESGGGLVQAGGSLRLSCAASGSTFYAYAMGWYRQAPGKERELVASITYSGVSTYYADSVKGRFTISRDNAKNTVYLQMNSLKPEDTAVYYCATDYSHITYSHYRWWYNEYEYWGQGTQVTVSS	low polyreactivity
QVQLVESGGGLVQAGGSLSLSCAASGNNLYGNAMGWYRPAPGKERELVAGITSGGSTNYADSVKGRFTISRDNAKNTVYLQMNSLKREDTAVYYCNATSSGSIFGYDYWGQGTQVTVSS	low polyreactivity
QVQLVESGEGLVQAGGSLRLSCAASGSIFTYNAMGWYRQAPGKERELVAAISRGGSTYYADSVKGRFSISRDNAKNTVNLQMNSLIPEDTAVYYCNARRYRHDGYWGQGTQVTVSS	high polyreactivity
QVQLVESGGGLVQAGGSLRLSCAASGSTFVQYDMGWYRQAPGKERELVAGITRTGSTYADSVKGRFTISRDNAKNTVYLQMNSLKPEDTADYYCAVYVSGYAQTSRYDYWGQGTQVTVSS	low polyreactivity
QVQLVESRGGLVQAGGSLRLSCAASGSTFSVYAMGWYRQAPGKERELVADITRGGSTYADSVTGRFTISRDNAKNTVYLQMNSLKPEDTAVDYCARAEVTPYPLYWSTREYDYWGQGTQVTVSS	low polyreactivity
QVQLVESGGGLVQAGGSLRLSCAASVRTFGGYAMGLYRQAPGKERELVAAITSDTGTNYADSVKGRFTISRDNAKNTVYLEMNSLKPEDTAVYYCAADTPYSYYLNIYWKGMDYWGQGTQVTVSS	low polyreactivity
QVQLVESGGGLVQAGGCLRLSCAASGFTFPFYAMGWYRQAPGKERELVAAITSRGGSTYYADSVKGRFTISRDNAKNTVYLQMNSLKPEHTAVYYCAARYTPRRYYYWGQGTQVTVSS	high polyreactivity
QVQLVESGGGLVQAGGSLRLSCAASGRIIDRNAMGWYRQAPGKERELFAAISSSGSTNYADSVKGRFTISRDNAKNTVYLQMNSLKPEDTAVYYCAARWRYVLAAGTRPVSFDYWGQGTQVTVSS	low polyreactivity
QVQLEESGGGLVQAGGSLRLSCAASGRTFDRNTMGWYRQAPGKERELVASITSSGASTYYADSVKGRFTISRDNAKNTVYLQINSLKPVDTSVYYCAARTYTGNYSNSKYYYWGQGTEVTVSS	high polyreactivity
QVQLVESGGGLVQAGGSLRLSGAASGRTLVPYAMGWYRQAPGKERELVAAISSGGSTNYADSVKGRFRISRDNAKNTVYLQMNSLKPEDTAVYYCAYCGQGTQVTVSS	low polyreactivity
QIQLVESVGGLVQAGGSLRLSCDASGSTLKYTAMGWYRQAPRKESELVAAISTSGGNTYYADSVKGPFTISRDNAKNTVYLQMNSLKPEDTAVYYCAKVLGYYYYDYDSWGQGTQVTVSS	low polyreactivity
QVQLVESGGGLVQAGVSLLLSCAATGIIFSYYAMGWYRQAPGKERELVAAISWNSGSTYYADSVKGRFTISRDNAKNTVYLQMNSLKPEDTAVYYCAAESYYSYSYYRPYEYYYWGQGNQVTVSS	high polyreactivity
QVQLVESGGGLVQAGGSLRLSCASSGSIFRYNAMGWYRQAPGKEREFVAAISYSGGRTYYADSLKGRFTISRDNAKNNVYLQMNIQKPEDTAVYYCAARLKRPFSGYDNWGQGTQVSVSS	high polyreactivity
QVQLVESGGGLVQAGGSLRLSCAASGFTSYLYTMGWYRQAPGKERELVAAISNSGGNTYYADSVKGRFTISRDNAKNTVYLQMNSLKPEDTAVYYCAARLFAAKYRYGYWGQGTQVTVSS	high polyreactivity
QVQLVESGGGLVQAGGSLRLSCAASGGIFYAYDMGWYRQAPGKERELVAAITWTGGTTYYADSVKGRFTISRDNAKNTVYLQMNSLKPEDTAVYYCAADDGTNSTARDKDDYYYWGQGTQVTVSS	low polyreactivity
QVQLVESGGGLVQAGGSLRLSCAASGFTFRTYAMGWYRQAPGKERELVATIRRAGSTNYADSVKGRFTISRDNAKNTVYLQMNSLNPEDTAVYYCAARVVTRVRGVGYNYWGQGTQVTVSS	high polyreactivity
QVQLVESGGGLVQAGGSLRLSCAASGRIFGYYAMGWYRQAPGKERELVAAINSGGSTNYADSVKGRFTISRDNAKNTVYLQMNSLKPEDTAVYYCAAGWRYRYFRSRNFYPYYYWGQGTQVTVSS	high polyreactivity
QVQLVESGGGLVQAGGSLRLSCAASGFTFGYYAMGWYRQAPGKERELVASMTVRGGSTYYADSVKGRFTISRDNAKNTVYLQINSLKPEDTAVYYCAAKRYPTWYPSQRSRYDSWGQGTQVTVSS	high polyreactivity
QVQLVESGGGLVQAGGSLRLSCAASGFIFGLYAMGWYRQAPGKEREFVAAISWSGGSTYYADSVKGRFTISRDNAKNTVYLQMNSLKPEDTAVYYCAREYHGDSRRYDYWGQGTQVTVSS	high polyreactivity
QVQLVESGGGLVQAGGSLRLSCADSGFTFTYYAMGWYRQAPGKERELVAGITRSGGSTYYADSVKGRFTISRDTAKNTVYLQMNSLKPEDTAVYYCAVKFVRYRQGIVLYDYWGQGTQVTVSS	high polyreactivity
QVQLVESGGGLVQAGGSLRLSCAASGSIFVHYALGWYRQAPGKERELVAAITVTGGTTYYADSVKGRFTISRDNAKNTVYLQMNSLKPEDTAVYYCATRANDGGWTQFGHGYDYWGQGTQVTVSS	low polyreactivity

Sequence	polyreactivity (PSR sort gate)
QVQLVESGGGLVQAGGSLRLSCAASGRIFRYYSMGWYRQAPGKERELVAAISRSGSTNYADSVKGRFTISRDNAKNTVYFQMNSLKPEDTAVYYCAADSNYLYFWRRYKRMDYWGQGTQVTVSS	high polyreactivity
QVQLVESGGGLVQAGGSLRLSCAASGLIYSAYAMGWYRQAPGKEREFVAAISRSGGITFYADSVKGRFTISRDNAKNTVYLQMNSLKPEDTAVYYCAARRSKYRRGGGYYWGQGTQVTVSS	high polyreactivity
QVQLVESGGGLVQAGGSHRLSCAASGSTFAGNAMGWYRQAPGKERELVAAISGSGGITYYADSVKGRFTISRDNAKNTVYLQMNSLKPEDTAVYYCNAYYWFSRYGYWGQGTQVTVSS	high polyreactivity
QVQLVESGGGLVQAGGSLRLSCAASVSTFQVYGMGWYREAPGKERELVAAISYSGGRTYYADSVKGRFTISRDNAKNTVYLQMNILKPEDTAVYYCNAVLAHDPRLDYWGQGTQVTVSS	high polyreactivity
QVQLVESCGGLVQAGGSLRLSCAASGRTFYFYAMGWYRQAPGKERELVAAISSTGGSTYYADSVKGRFTISRDNAKNTVYIQMNSLKPEDTAVYYCAARKSPRGRGEFYWGQGTQVTVSS	high polyreactivity
QVQLVESGGGLFQAGGSLRLSCAASGSIFDSYAMGWYRQAPGKDREVVAAISSDCGSTYYADSVKGRFTISRDNAKNTVYLQMNSLKPEDTAVYFCAVEDYSSPYDFDSWGQGTQVTVSS	low polyreactivity
QVQLVESGGGLVQARGSLRLSCAASGSIFDPNAMGWSRQAPGKVRELGAAMTSGGGSTYYADSVKGRFTISRDNAKNTVYLQMNSLKPEDTAVYYCNNVFVLPYNFVAWFDYWGQGTQVTVSW	low polyreactivity
QVQLVESGGALVQARGSLRLSSASSGSTFYPNAMGWYIQARGKEREFVAAISFSDGSTYYADSVKGRFTISRDNANNTVYLQMNSPKAEATAVYYCNKGASPDDYDYWGQGTQVTVSS	low polyreactivity
QVQLVESGGGLVQAGASLRLSCAASGSIFKDYAMGWYRQAPWKERDLLAAITSRTSTTYADSVKGRFTISRDNAKNTVYLQMNSLKPEDTAVYYCAVEDLGSEGWGWYKEMDYWGQGTQVTVSS	low polyreactivity
QVQLVESGGGLVQAGGSLRISCAASGMIFDWYTMGWYRQAPGKERELVAAISWRGGRTYYADSVKGRFTISRDNAQNTVYLQMNSLKPEDTAVYYCAAEGLFTGRVSRFADDHWGQGTQVTVSS	low polyreactivity
QVQLVESGGGLVQAGGSLRLSCAASGITFDYYVMGWYRQAPGKERELVAAISWSGGTTYYADSVKGRFTISRDYAKNTVYLQMNSLKPEDTAVYYCNAEHTGSFYGGYPWEMEYWGQGTQVTVSS	low polyreactivity
QVQLVESGGGLVQAGGSLRLSCAASGSIFTYYTMAWYRQAPGTERELVAAINGRGHSTYYADSVKGRFTISRDNAKNTVYLQMKSLKSEDTAVYYCKALGSLDGRYGYWGQGTQVTVSS	high polyreactivity
QLQLVESGGGLVQAGGSLRLSCAASGLIQANYAMGWYRQAPGKERELVAAISSSGGSTYSADSVKGRFSISRDNAKNTVYLQMKSLKPEDTAVYYCAAYPLYRRRWTGDYWGQGTQVTVSS	high polyreactivity
QVQLVQSGGGLVQAGGSLRLSCAASGSTFRIYAMGWYRQAPGKEREFVAAISDRGGRTYYADSVKGRFTISRDNAKNTVYLQMNSLKPEDTAVYYCAAVKLLSSAPGDDCQMNYWGQGTQVTVSS	low polyreactivity
QVQLVESGGGLVQAGGSLRLSCAASGYNFPLYSMGWYTQAPGKERELVADINIGGASTYYADSVKGRFTISRDNAKNTVYLQMNSLKPEDTAVYDCAKEYFDGYFPTFDYDYWGKGTQVTVSS	low polyreactivity
QVQLVESGGGLVQAGGSLRLSCAASGRIFRWNVTGWYRQAPGKETELDASITSGSSTNYADSVKGRFTISRDNAKYTVFLQMNSLKPEDTAVYYSAAYGVQTYRRYSYPRGFDYWGQGTQVTVSS	high polyreactivity
QVQLVESGGGLVQAGGSLRLSCAASGITFDYYAMGWYRQAPGKERELVAAITSVGNTYYADSVKGRFTISRDNAKNTVYLQMNSLKPEDTAVYYCNALSFYSLVSFDYWGQGTQVTVSS	low polyreactivity
QVQLVESGGGLVQAGGSLRLSCAASGIIFGQYAMGGYIQAPGKEREFVSAISRSGGSTNYADSVKGLFTISRDNAKNTVYLQMNSLKPEDTAVYYCNKRARHTGDFVWGHGYWGQGTQVTVSS	low polyreactivity
QVQLVESGGGLVQAGGSLRLSCAASGRTFRRYAMGWYRQAPGKERELVASISRTGGSTYYADSVKGRFTISRDNSKNTVYLQMNSLKPEDTAVFYCNAGPSVGWYNYWGQGTQVTVSS	high polyreactivity
QVQLVESGGVLVQAGGSLRLSCAASGRTIWYYAMGWYRQAPGKERELVASITRSGGTTYADSVKGRFTISRDNAKNTVYLQMNSLKPEDTAVYYCAATRPRIPVYQNNYGYWGQGTQLTVSS	high polyreactivity
QVQLVESGGGLVQAGGSLRLSCSASGFIFYLYTMGWYRQAPGKERELVAAITKSGTRTYYADSVKGRFTISRDNAKNTVYLQMNSLKPEDTAVYYCAAEWGSSYRWGMDYWGQGTQVTVSS	high polyreactivity
